# Test results as given in patent US20200347130A1 (JIANGSU HENGRUI MEDICINE, published 2020).
# Positions count from the first letter of the chain named.
# B1: h1722-007 (antibody, V domains shown)
# VH: EVQLVQSGAEVKKPGSSVKVSCKASGGTFSDYWMHWVKQAPGQGLEWIGMLHPNSGTTSFNEKFKIRVTITIDKSTSTAYMELSSLRSEDTAVYYCASDYSGPFAYWGQGTLVTVSS
# VL: DIQMTQSPSSLSASVGDRVTITCSASSSVNYIHWYQQKPGKAPKRWIYDTSKLASGVPSRFSGSGSGTDFTLTISSLQPEDFATYYCQQWRSNPLTFGQGTKLEIK
# notes: Only variable regions are tied to this name
# B2: h1722-012 (antibody, V domains shown)
# VH: B1 VH with G27N, V68T
# VL: B1 VL with M4L, Y48F, F70Y
# notes: as for B1
# B3: h1722-009 (antibody, V domains shown)
# VH: B1 VH with K38R, I48M, I72A, S98R
# VL: B1 VL with M4L, Y48F, F70Y
# notes: as for B1
# B4: h1722-008 (antibody, V domains shown)
# VH: B1 VH with G27N, V68T
# VL: B1 VL
# notes: as for B1
# B5: h1722-011 (antibody, V domains shown)
# VH: B1 VH
# VL: B1 VL with M4L, Y48F, F70Y
# notes: as for B1
# B6: h1718-007 (antibody, V domains shown)
# VH: EVQLVQSGAEVKKPGASVKVSCKASGYTITDYNMNWVRQAPGQRLEWIGVINPSYGITDYNQNFKDRVTITVDTSASTAYMELSSLRSEDTAVYYCAIQLRLPGYFDVWGQGTTVTVSS
# VL: DIQMTQSPSSLSASVGDRVTITCKASQDINNYLNWFQQKPGKAPKTLIYRANRLVDGVPSRFSGSGSGQDYTLTISSLQPEDFATYYCLKYDEFPYTFGGGTKVEIK
# notes: as for B1
# B7: h1718-018 (antibody, V domains shown)
# VH: B6 VH with R38K, R67K
# VL: B6 VL with N31Q
# notes: as for B1
# B8: h1718-019 (antibody, V domains shown)
# VH: B6 VH with R38K, R67K
# VL: B6 VL with N31T
# notes: as for B1
# B9: h1718-008 (antibody, V domains shown)
# VH: B6 VH with R38K, R67K
# VL: B6 VL
# notes: as for B1
# B10: h1718-020 (antibody, V domains shown)
# VH: B6 VH with R38K, R67K
# VL: B6 VL with N31L
# notes: as for B1
# B11: h1718-013 (antibody, V domains shown)
# VH: B6 VH
# VL: B6 VL with N31T
# notes: as for B1
# B12: h1718-014 (antibody, V domains shown)
# VH: B6 VH
# VL: B6 VL with N31L
# notes: as for B1
# B13: h1721-007 (antibody, V domains shown)
# VH: EVTLKESGPVLVKPTETLTLTCTVSGFSLSSYGVNWIRQPPGKALEWLGVIWGDGSTNYHSALISRLTISKDTSKSQVVLTLTNMDPVDTATYYCAKNYFYGSRYGYAMDSWGQGTTVTVSS
# VL: DIQMTQSPSSLSASVGDRVTITCRASENIYSSLAWYQQKPGKAPKLLVYNAKTLIEGVPSRFSGSGSGTDYTLTISSLQPEDFATYYCQHHYGTPYTFGGGTKVEIK
# notes: as for B1
# B14: h1721-002 (antibody, V domains shown)
# VH: B13 VH with L82M
# VL: B13 VL with V48I, Y71F
# notes: as for B1
# B15: h1721-009 (antibody, V domains shown)
# VH: B13 VH with G49A, L82M, K97R
# VL: B13 VL with A43S
# notes: as for B1
# B16: h1721-008 (antibody, V domains shown)
# VH: B13 VH with I37V, A44G
# VL: B13 VL
# notes: as for B1
# B17: h1721-005 (antibody, V domains shown)
# VH: B13 VH with G49A, L82M, K97R
# VL: B13 VL
# notes: as for B1
# B18: h1721-006 (antibody, V domains shown)
# VH: B13 VH with L82M
# VL: B13 VL
# notes: as for B1
# B19: h1721-001 (antibody, V domains shown)
# VH: B13 VH with G49A, L82M, K97R
# VL: B13 VL with V48I, Y71F
# notes: as for B1
# B20: h1721-010 (antibody, V domains shown)
# VH: B13 VH with L82M
# VL: B13 VL with A43S
# notes: as for B1
# B21: h1721-011 (antibody, V domains shown)
# VH: B13 VH
# VL: B13 VL with A43S
# notes: as for B1
# B22: h1721-004 (antibody, V domains shown)
# VH: B13 VH with I37V, A44G
# VL: B13 VL with V48I, Y71F
# notes: as for B1
# B23: h1721-012 (antibody, V domains shown)
# VH: B13 VH with I37V, A44G
# VL: B13 VL with A43S
# notes: also called h1721-0012
# B24: h1719-007 (antibody, V domains shown)
# VH: EVTLKESGPVLVKPTETLTLTCTVSGFSLSSYGVSWVRQPPGKGLEWLGVIWGDGNTNYHSVLISRLTISKDTSKSQVVLTLTNMDPVDTATYYCAKQNYYGSRYGYPLDYWGQGTTVTVSS
# VL: DIQMTQSPSSVSASVGDRVTITCKATQDVGTAVAWYQQKPGKAPKLLIYWASTRHTGVPSRFSGSGSGTDFTLTISSLQPEDFATYYCQQYGSSVLTFGGGTKVEIK
# notes: as for B1
# B25: h1719-008 (antibody, V domains shown)
# VH: B24 VH with Q98N, N99Y
# VL: B24 VL
# notes: as for B1
# B26: h1719-016 (antibody, V domains shown)
# VH: B24 VH with L109I
# VL: B24 VL with A43S, S60E, Y87F
# notes: as for B1
# B27: h1719-013 (antibody, V domains shown)
# VH: B24 VH
# VL: B24 VL with A43S, S60E, Y87F
# notes: as for B1
# Target: T1, CD96 extracellular region with His tag (CD96-His) (human, UniProt P40200 22-519)
# T1 construct: also called CD96-ECD-His; Bio-CD96-His (biotin-labelled form)
# T1 sequence: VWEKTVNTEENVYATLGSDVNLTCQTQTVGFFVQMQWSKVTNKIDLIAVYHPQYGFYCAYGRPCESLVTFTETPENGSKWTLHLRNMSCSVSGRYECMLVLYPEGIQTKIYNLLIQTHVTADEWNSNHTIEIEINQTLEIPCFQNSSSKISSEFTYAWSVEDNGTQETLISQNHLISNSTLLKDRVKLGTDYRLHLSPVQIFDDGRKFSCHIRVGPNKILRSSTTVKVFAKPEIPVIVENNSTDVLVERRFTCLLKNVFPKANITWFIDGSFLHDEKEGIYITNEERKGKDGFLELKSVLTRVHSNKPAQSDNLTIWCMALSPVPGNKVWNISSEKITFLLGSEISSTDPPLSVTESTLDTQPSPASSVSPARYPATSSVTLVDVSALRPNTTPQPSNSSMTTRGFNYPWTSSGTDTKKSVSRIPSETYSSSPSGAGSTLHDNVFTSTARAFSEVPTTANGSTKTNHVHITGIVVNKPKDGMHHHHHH
# Assay: SPR (Biacore), antibody captured, CD96-ECD-His as mobile phase
# Source text: Protein A biosensor chip was used to capture antibodies to be tested, then CD96 antigen was flowed on the surface of the chip, and real time reaction signal was detected by Biacore to obtain the binding and dissociation curve. After the dissociation of each experimental cycle was completed, the biosensor chip was washed and regenerated with a glycine-hydrochloric acid regeneration solution (pH 1.5).
row,Binder,Kd
1,B1,1.31 nM
2,B2,0.781 nM
3,B3,4.55 nM
4,B4,1 nM
5,B5,0.948 nM
6,B6,3.88 nM
7,B7,3.82 nM
8,B8,3.7 nM
9,B9,3.37 nM
10,B10,3.41 nM
11,B11,4.08 nM
12,B12,4.31 nM
13,B13,1.87 nM
14,B14,2.2 nM
15,B15,2.01 nM
16,B16,2.22 nM
17,B17,2.25 nM
18,B18,2.29 nM
19,B19,2.73 nM
20,B20,2.04 nM
21,B21,2.12 nM
22,B22,2 nM
23,B23,2.14 nM
24,B24,25.5 nM
25,B25,17.6 nM
26,B26,90.7 nM
27,B27,19.8 nM
